According to the DeepSol protein solubility set:

Assay: soluble on expression in E. coli; label from the status in PepcDB or PDB records

| Sequence | soluble on expression in E. coli |
| --- | --- |
| MSYVIDRRLNGKNKSTVNRQRFLRRYRDHIKKAVEEAVSRRSITDMEHGEQISIPGRDIDEPVLHHGRGGKQTVVHPGNKEFTTGEHIARPQGGAGGKGPGKAGNSGEGMDEFSFQITQEEFLEFMFEDLELPNLVKRNLTGTDTFKTVRAGISNEGNPSRINIIRTLRSAHARRIALSGSSRAKLREATSELERIKREEPDNFGDIQALEVEIDRLKARIRRVPYLDTFDLKYNLLVKQPNPSSKAVMFCLMDVSGSMTQATKDIAKRFFILLYLFLKRNYDKIDVVFIRHHTSAREVDEEEFFYSRETGGTIVSSALKLMQEIMAARYPSSDWNIYAAQASDGDNWNDDSPICREILTKQIMPFVQYYTYVEITPREHQALWYEYERIGDDFADTFAQQQLVSAGDIYPVFRELFQRRLVSAAALEHHHHHH | not soluble |
| MGSDKIHHHHHHMFTRRFIPVVQSTKQNIGKYVRKDARFTLLTYNMLSPSYMWPQVYTYVAEPYKNWSYRHRLLEKELLNTFKADIMCLQEMTARDYEDYWHDSIGVDVNYGSKFISKTPPKYWKKPVKDMDGVSIFYNLAKFDFISSSGIYLNQLLNVFNQRELKYLYNKKVTLTDGASNVIGEDSLLDVLKGKNQVCLFVSLRHKETGTIFVVLNTHLYWKYDEVKLTQCMIIMRELSKIIKQLLPGDVKGQERVKILFTGDLNSTRDSLVVNFLQGQIVSHGDLNLINPMRPYLDRCVYDDIPKDYFVHTCYSGKLKGIFDYVWYHDSDFLLTKILTGNEVSDELLASNQLGLPNENHPSDHIPLLTEFKIL | not soluble |
| GPGSMAASSVASVSATKASALAAKKAEKDAHDSRSLFEEYEQLSKDIKNIQLKTMICRTETHQLMKEESAAKQEVKRIQAVPLVLGNFVEVVDSVRGIVSGTSGSQYFVRILSTLNKEHLKPNVSVGLHKSSNACVQLLPSETDATITLLNSSDRPDVTYSDVGGLDMQKQEIREAVELPLTHAGLYEQIGIDPPRGVLLYGPPGTGKTMLVKAVARHTKASFIRVVGSEFVQKFLGEGPRKVRDVFRLARENAPSIIFIDEVDSIATKRFDAQTGADREVQRVLVELLTQMDGFDQTTNVKVIMATNRWDTLDPALLRPGRLDRKIEFPYPDRRQKRLVFQVCTSKMNLSPEVDLEDYVTRPEKLSGADIQSICQEAGMLAVRKNRYVILPRDIENAYRTVIKKTGDETYDFYS | not soluble |
| MSLGIKVVLLEKAHEIGEIGAGIQLGPNAFSALDSLGVGEVARQRAVFTDHITMMDAVNAEEVVCIETGQAFRDHFGGPYAVIHRVDIHASVWEAVLTHPDVEYHTSTNVVDIRETEDDVTVFDDRGNSWTGDILIGCDGVKSVVRQSLLGDAPRVTGHVVYRAVIDRADMPEDLRINAPVLWAGPHCHLVHYPLRGGKQYNLVVTFHSRQQEEWGVKDGSKEEVLSYFEGIHPRPRQMLDKPTSWRRWSTADREPVAKWGTKRITLVGDSAHPVAQYMAQGACMALEDAVTLGKALAQCEGDAAQAFALYESVRIPRTARIVWSTREMGRVYHAAGVERQVRNLLWKGKSQAEFYRGMEWLYGWKEDNCLQPREGHHHHHH | not soluble |
| MAHHHHHHMTSLTEEHEILIDEPPQFTAAAEVIAVGAEEPTVATPEEFTSAQEAGAFLQTPVGTPPATPTSVPTTPSPNEMAAKHARKRWRMEQLALQESVKVVESEPISRRGHSRKAEMSEFAITKAATLNTAPTLLSMSPNIIDTNVTMLGTKRVPLDNFLKVTVLHPKVTPVNLKLEFIDPVLEPVQLSRHQLGNRVTPNEGEGGGMSVKKKRGRKPLVASPSIEEAKAVESGYNAE | not soluble |
| GMKGENMMVKLIALYEQPEDKQAFDEHYFNTHAPLTRKIPGLRDMKVTRIVGSPMGESKFYLMCEMYYDDHESLQQAMRTDEGKASGKDAMKFAGKLLTLMIGEEMDE | soluble |
| MSCCFSKKLFGRRSKREDRYKVSEDAVPKPEEGGEPPKYSWDRREKVNAEDFTIANIHNTTLKKESKDGGPLQMENCTDSTILYLYQTSQVIIDDCRHCTIVLGPAAGSVFVRDCANCTIFTSCQQLRTRDCTSIRISILCPTEPIVENSSDIHFFHLAMRYPELKDQMHAVGLRPFTNRIASVHDFTPAGVNGKGNFRVTPEVVQISDGQEEILRAKGVILKPSPADFIPRFTDTTDPDPTFLYVLGKSEPVDELGDRAIELLHAIYKSGMQVMGTCDLETSTVDSKLVPFAGQAERMILFQLKGNLANLECDVEFDVMSENDLVPLRNLLIHLEGKKNG | not soluble |
| SLTPDSTAGSLHIDCPTGLAGDMLLAALLDLGVPLEVIKAPLARLGLKDMVRLDVEETRSGGLRGRRLNVVGLEPDPPHRHWAEIRDRLQNSSLEPKLLQTVLAVFTALAEAEATVHAQTPESVHFHEVGAIDALVDVVGVCAAIHHLAPHRISCAPPPAGHGSVTTAHGLLPVPVPAVLELARAHQVPLRHDPSLPEGELTTPTGLALVSVLAERFTAPPLFTPSAIGIGLGHRRLDRPNLVRLCLGQGESATLDLEARWQPLVVQEAWIDDASAEDIAWLLDRLRQAGALDVACQSLLMKKGRAGVAVTALVSTEQAPQLRRTWFEAGPSIGLRERQQGRWLLPRRAGTLSTPWGVLTAKQVRRPDGHCTVKPEADALQRLSQASGCSVADLRAAAQAASFESEEPWTW | not soluble |
| MRDAALRYPNILFDLDGTLTDPREGITRSVQFALARLGIDEPDLARLEHFIGPPLLQCFMQTYGFDEARAWEAVNHYRERFRVTGLYENRVFDGIPELLEALVGRGHTLYVATSKPGVFAREIARHFAFDRHFKAIYGSELDGTRTHKEELIRHLLDSEGLAAEHCLMIGDRMHDLLGASRNGVACIGVGYGFGSEDELRAHQPTHYCADLAALRQVLESH | not soluble |
| MGSDKIHHHHHHMSFNIGLSGIQAASSGLNVTGNNIANAGTVGFKQSRAEFADVYAASVLGSGSNPQGSGVLLSDVSQMFKQGNIDSTNSVLDLAINGNGFFVTSNNGAISYTRAGYFNTDKQDFIVDNNGYRLQGYAVGPNGQLQNGVVTDLKVERANQAPQATSSIQQSYNLNSTLKPPTVTPFDPSDAATYNSSSSLGIYDSQGNSHTMSQFFIKNEPDPNATPPIPENSWTMKVLIDGVNPLDPSNKTPMSFNVTFDASGQMTSVRAPDGSTSGPGFSIDATTNVIQFSPATGNPPTPGTGWIPAASDGKTPPTYAWNGATGAASGISFDMRKTTQYSTAFAQSNPIQDGYTTGQLAGLEIDDTGVIFARYTNGQSKVQGQVVLANFANIQGLTPIGKTSWVQSSESGEPAVGAPRSGTLGALQSGALEASNVDISNELVNLIVHQRNYQANAKTIQTEDAVTQTIINLR | not soluble |
| MFKGIVQGAGIIKKISKNDDTQRHGITFPKDILESVEKGTVMLVNGCSLTVVRISGDVVYFDIDQAINTTTFRELEVGNKVNLEVRPEFGSLLGKGALTGNIKGVATVDNITEEEDRLKVYIKIPKDLIENILSEDHIGINGVSHSIEEISDDIIFINYPKNLSITTNLGTLEKGSDVNVETLNVSNEWD | soluble |
| MAHHHHHHSLSLQVTTKTGKESQKKTQTTAKSTITVDIKGAVKHEGVYTLPIDSRINDVIEKAGGFSEKADRKSVNLAQKLQDEAVIYVAAIGENISVIRDSQEGKTSQADKANTKETSVKGKVNLNTATLADLQTISGIGEKKAQDILDYREANGGFKSVDDLKNISGIGDKTFEKLKDLVSVDEG | not soluble |
| MGSDKIHHHHHHMQLQELHMLVVLAEELNMRKAAERLFVSQPALSQRLQTIEKAWGTKIFLRSQKGLTVTPAGEKIIQFANDVTLEQERIRENIDELEGEIHGTLKLAVASIIGQHWLPKVLKTYVEKYPNAKISLITGWSSEMLKSLYEDQVHIGIIRGNPEWKGRKDYLMTDHLYLVDTEISCIEDIAHTERPFIQFKSDSTYFQEIQHWWHQKFKTSPKQTILVDQIETCKQMALHGIGYAILPSVTLQNEDKVNKMPLLDMKGHPIGRDTWLLGYEPAFELKQVQAFVQVIKDMLDQENPF | not soluble |
| SFQEQTTKSRDVNSFQIPLRDGVRELLPEDASRNRASIKSPVDIWIGGENMTALNGIVDGGRKFEAGQEFQINTFGSVNYWVSDEEIRVFKEYSARAKYAQNEGRTALEANNVPFFDIDVPPELDGVPFSLKARVRHKSKGVDGLGDYTSISVKPAFYITEGDETTDTLIKYTSYGSTGSHSGYDFDDNTLDVMVTLSAGVHRVFPVETELDYDAVQEVQHDWYDESFTTFIEVYSDDPLLTVKGYAQILMERT | soluble |
| MASVPTHQSEKEKKNDELSTAILKDKVKPNRLIVDQSEQDDNSVIAVSQAKMDELGLFRGDAVILKGKKRKESVAIIVSDESCPNEKVRMNRVVRNNLRIRLGDVVSITPAPNLSYGTRIHVLPIDDTIEGLTGNLFDVFLKPYFLEAYRPLHKGDIFTVQAAMRTVEFKVVETEPAPACIVSPDTMIHYEGDPIKREEEEESMNDIGYDDLGGVRKQLAQIKEMVELPLRHPQLFKAIGIKPPRGILLFGPPGTGKTLIARAVANETGSFFFLINGPEVMSKMSGESESNLRKAFEECEKNQPAILFIDEIDAIAPKREKTNGEVERRIVSQLLTLMDGVKGRSNLVVIAATNRPNSIDGALRRFGRFDREIDIGIPDAVGRLEILRIHTKNMKLADDVDLEQIANECHGFVGADLASLCSEAALQQIREKMELIDLEDDQIDAEVLNSLAVTMENFRFAQGKSSPSALREAVVETPNTTWSDIGGLQNVKRELQELVQYPVEHPEKYLKFGMQPSRGVLFYGPPGCGKTLLAKAIANECQANFISIKGPELLTMWFGESEANVRDVFDKARAAAPCVLFFDELDSIAKARGGGAGGDGGGASDRVINQVLTEMDGMNAKKNVFIIGATNRPDIIDPAVLRPGRLDQLIYIPLPDEASRHQILKASLRKTPLSKDLDLTFLAKNTVGFSGADLTEICQRACKLAIRESIEKEIRIEKERQDRQARGEELMEDDAVDPVPEITRAHFEEAMKFARRSVTDNDIRKYEMFAQTLQQSRGFGNNFKFPGEQRGSDAPSAPVPAQDDDDLYN | soluble |
| GSHMTNWLRVYYYEDTISTIKDIAVEEDLSSTPLLKDLLELTRREFQREDIALNYRDAEGDLVRLLSDEDVALMVRQARGLPSQKRLFPWKLHITQKDNYRVYNTMP | soluble |
| MGAVSAFSWASSGRLHALEVFVMKIPKTYDEIMEHFGGLIDEVTAELLESYAKGETVRVSEALAKSGRVAVEGVVLRVFPVRHFSKNGRSGKVGSVVIQDDCTVRVNFWNEAAEIIEAGDIVEGARIKVRGYARGEEIHVNSLSEVEVFVDFVNISELDEKVGERVNVKGFVSGLGEPEKANEIYISDETGRVKVLLENESLYYAVDIGSYVEIYNALAGEDGIYVDRNSRFSVGE | soluble |
| PLQEERLQRLQDRMVVPFDETRPDHQESLKALWNVAFPNVHLTGLVTEQWKEMGWQGPNPSTDFRGCGFIALENLLFSARTYPVNYSLLLKQRGDRAKWEYPFAVAGINISFMLIQMLDLQNNQDERAFDVLYCIAFAMMDAQWLAMHASYMEFNEVLQATRNQLERELSLDDIHRIQDLPAYNLLFQ | not soluble |
| FHQISSRIQKSIDVDEVLRLCAEGLHDVLGYERVNILMADTARTSLSFVAAVGTADFNPAGVVLPLDQRGGVITKCFTDRQVYMIDDVSAYPTDFRLQSPYDAIRALRSKSFVICPIVVKGEAIGVFAVDNRSSRRSLNDTDVDTIKLFADQASSAIVRINLLKAI | soluble |
| QVSDEDVMLMIRQGAKKGVFESVEYEMISRIFRMSDKRASALMTPRNEIEWLDLERPDEELVARIKASGRSRFPVAKGSLDELQGVVRSLDLVNFSLSSKGSIREAIRASMKPPLFVPESVPAFHVLELFKKNRAHMALVIDEHGSVQGAITLTDVLESIVGDVPADDMEGD | not soluble |
| MSTPRQILAAIFDMDGLLIDSEPLWDRAELDVMASLGVDISRRNELPDTLGLRIDMVVDLWYARQPWNGPSRQEVVERVIARAISLVEETRPLLPGVREAVALCKEQGLLVGLASASPLHMLEKVLTMFDLRDSFDALASAEKLPYSKPHPQVYLDCAAKLGVDPLTCVALEDSVNGMIASKAARMRSIVVPAPEAQNDPRFVLSNVKLSSLTELTAKDLLG | soluble |
